The values below come from the supplement of paper PMC9112550, “Optimization of the antimicrobial peptide Bac7 by deep mutational scanning” (BMC Biology, 2022).

This series relates to Escherichia coli TOP10. Description: shrunken log2 fold change of peptide-encoding DNA abundance (4.5 h post-induction vs induction); higher = less antimicrobial activity (less host growth inhibition). The settings on record: time post-induction: 4.5 h; library: site-saturation at positions 5, 18, 19, 20.
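Note: peptides expressed intracellularly from a pBAD plasmid library in pooled LB shake-flask culture, induced with 0.3% L-arabinose, DNA abundance read by NGS, three biological replicates, DESeq2 with apeglm shrinkage.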

As for RRIRVRPPRLPRPRPRPQIYPRP, the “shrunken log2 fold change” value is -0.251.

Take RRIRLRPPRLPRPRPRPGRPPRP: the “shrunken log2 fold change” value came to 0.526.

On to RRIRGRPPRLPRPRPRPQQFPRP, for which the “shrunken log2 fold change” value worked out at 0.239.

For the sequence RRIRYRPPRLPRPRPRPYAGPRP, the “shrunken log2 fold change” value was -0.00131.

Regarding RRIRLRPPRLPRPRPRPFSGPRP, the “shrunken log2 fold change” value was -0.374.

Take RRIRDRPPRLPRPRPRPMVAPRP: the “shrunken log2 fold change” value worked out at 0.00167.

Consider RRIRFRPPRLPRPRPRPEQCPRP, for which the “shrunken log2 fold change” value amounted to 0.285.

As to RRIRYRPPRLPRPRPRPCAMPRP, the “shrunken log2 fold change” value was 0.0865.

Regarding RRIRHRPPRLPRPRPRPVGCPRP, the “shrunken log2 fold change” value worked out at 0.0698.

For the sequence RRIRIRPPRLPRPRPRPFRMPRP, the “shrunken log2 fold change” value is -0.91.

On to RRIRMRPPRLPRPRPRPTEFPRP, for which the “shrunken log2 fold change” value was 0.0756.

For RRIRQRPPRLPRPRPRPDPEPRP, the “shrunken log2 fold change” value is -0.202.

With RRIRPRPPRLPRPRPRPKDCPRP, the “shrunken log2 fold change” value amounted to 0.107.

In the case of RRIRDRPPRLPRPRPRPNCVPRP, the “shrunken log2 fold change” value was found to be 0.0238.

RRIRHRPPRLPRPRPRPQCPPRP: the “shrunken log2 fold change” value is -0.211.

As for RRIRHRPPRLPRPRPRPECFPRP, the “shrunken log2 fold change” value was -0.0176.

Consider RRIRFRPPRLPRPRPRPLGHPRP, for which the “shrunken log2 fold change” value was -0.0599.

As to RRIRHRPPRLPRPRPRPQVHPRP, the “shrunken log2 fold change” value was -0.213.

As for RRIRNRPPRLPRPRPRPKVWPRP, the “shrunken log2 fold change” value is 0.68.

On to RRIRPRPPRLPRPRPRPQWQPRP, for which the “shrunken log2 fold change” value was -0.109.

RRIRFRPPRLPRPRPRPTTVPRP: the “shrunken log2 fold change” value was -0.132.

Regarding RRIRKRPPRLPRPRPRPLWEPRP, the “shrunken log2 fold change” value was 0.163.

As for RRIRRRPPRLPRPRPRPMGFPRP, the “shrunken log2 fold change” value turned out to be 0.317.

As to RRIRGRPPRLPRPRPRPMWWPRP, the “shrunken log2 fold change” value came to 0.184.

For RRIRYRPPRLPRPRPRPTGRPRP, the “shrunken log2 fold change” value came to 0.0692.

Turning to RRIRNRPPRLPRPRPRPEKYPRP, the “shrunken log2 fold change” value is -0.805.

On to RRIRFRPPRLPRPRPRPNFPPRP, for which the “shrunken log2 fold change” value is -0.254.

Turning to RRIRGRPPRLPRPRPRPRNIPRP, the “shrunken log2 fold change” value came to 0.0648.

RRIRSRPPRLPRPRPRPSPMPRP: the “shrunken log2 fold change” value was -0.132.

Consider RRIRYRPPRLPRPRPRPYMNPRP, for which the “shrunken log2 fold change” value turned out to be 0.0271.

Turning to RRIRKRPPRLPRPRPRPSLNPRP, the “shrunken log2 fold change” value was -0.0764.

On to RRIRQRPPRLPRPRPRPQFQPRP, for which the “shrunken log2 fold change” value is -0.265.

Take RRIRCRPPRLPRPRPRPYEVPRP: the “shrunken log2 fold change” value is -0.0152.

Regarding RRIRQRPPRLPRPRPRPKFQPRP, the “shrunken log2 fold change” value was 0.022.

For the sequence RRIRKRPPRLPRPRPRPHQCPRP, the “shrunken log2 fold change” value is -0.0321.

With RRIRSRPPRLPRPRPRPWKFPRP, the “shrunken log2 fold change” value was -0.176.

As for RRIRNRPPRLPRPRPRPRLQPRP, the “shrunken log2 fold change” value was determined as 0.0236.

Regarding RRIRNRPPRLPRPRPRPYDFPRP, the “shrunken log2 fold change” value worked out at 0.0143.

Consider RRIRCRPPRLPRPRPRPKSMPRP, for which the “shrunken log2 fold change” value is -0.541.

Regarding RRIRARPPRLPRPRPRPRFCPRP, the “shrunken log2 fold change” value amounted to 0.527.

For the sequence RRIRYRPPRLPRPRPRPKLCPRP, the “shrunken log2 fold change” value was -0.0301.

Consider RRIRHRPPRLPRPRPRPIAYPRP, for which the “shrunken log2 fold change” value was -0.149.

Regarding RRIRNRPPRLPRPRPRPGRSPRP, the “shrunken log2 fold change” value is 0.17.

On to RRIRIRPPRLPRPRPRPTRMPRP, for which the “shrunken log2 fold change” value is 0.0519.

Regarding RRIRVRPPRLPRPRPRPEFVPRP, the “shrunken log2 fold change” value was -0.262.

In the case of RRIRARPPRLPRPRPRPNQMPRP, the “shrunken log2 fold change” value is 0.143.

Take RRIRVRPPRLPRPRPRPQEPPRP: the “shrunken log2 fold change” value is 0.0426.

Regarding RRIRQRPPRLPRPRPRPMMLPRP, the “shrunken log2 fold change” value was determined as 0.052.

For RRIRERPPRLPRPRPRPAFHPRP, the “shrunken log2 fold change” value was -0.154.

In the case of RRIRERPPRLPRPRPRPNKRPRP, the “shrunken log2 fold change” value was -0.164.
